Target: APC
Sequence (Q14114 33-826): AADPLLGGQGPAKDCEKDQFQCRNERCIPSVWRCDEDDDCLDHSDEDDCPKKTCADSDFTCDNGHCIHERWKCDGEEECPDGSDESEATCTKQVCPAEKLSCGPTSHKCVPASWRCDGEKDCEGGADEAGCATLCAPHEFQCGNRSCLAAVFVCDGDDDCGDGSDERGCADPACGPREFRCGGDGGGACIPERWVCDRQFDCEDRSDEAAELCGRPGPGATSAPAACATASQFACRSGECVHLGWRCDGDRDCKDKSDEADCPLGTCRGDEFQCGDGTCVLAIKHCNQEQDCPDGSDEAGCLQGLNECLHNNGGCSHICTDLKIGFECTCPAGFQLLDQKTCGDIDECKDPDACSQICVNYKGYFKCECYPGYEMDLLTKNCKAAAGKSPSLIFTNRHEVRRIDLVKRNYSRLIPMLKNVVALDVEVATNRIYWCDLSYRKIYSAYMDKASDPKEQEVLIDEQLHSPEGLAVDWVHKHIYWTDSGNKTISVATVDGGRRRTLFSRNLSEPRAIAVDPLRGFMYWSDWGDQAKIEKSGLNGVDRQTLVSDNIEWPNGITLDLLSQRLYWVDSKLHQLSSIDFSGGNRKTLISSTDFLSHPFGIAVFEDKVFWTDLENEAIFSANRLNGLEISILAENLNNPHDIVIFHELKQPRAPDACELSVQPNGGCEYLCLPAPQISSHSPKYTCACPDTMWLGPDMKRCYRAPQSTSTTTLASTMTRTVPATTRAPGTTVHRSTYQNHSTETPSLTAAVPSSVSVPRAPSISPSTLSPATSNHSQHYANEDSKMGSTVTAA

B1: ApoER2 (as bound by APC) (receptor)
chain: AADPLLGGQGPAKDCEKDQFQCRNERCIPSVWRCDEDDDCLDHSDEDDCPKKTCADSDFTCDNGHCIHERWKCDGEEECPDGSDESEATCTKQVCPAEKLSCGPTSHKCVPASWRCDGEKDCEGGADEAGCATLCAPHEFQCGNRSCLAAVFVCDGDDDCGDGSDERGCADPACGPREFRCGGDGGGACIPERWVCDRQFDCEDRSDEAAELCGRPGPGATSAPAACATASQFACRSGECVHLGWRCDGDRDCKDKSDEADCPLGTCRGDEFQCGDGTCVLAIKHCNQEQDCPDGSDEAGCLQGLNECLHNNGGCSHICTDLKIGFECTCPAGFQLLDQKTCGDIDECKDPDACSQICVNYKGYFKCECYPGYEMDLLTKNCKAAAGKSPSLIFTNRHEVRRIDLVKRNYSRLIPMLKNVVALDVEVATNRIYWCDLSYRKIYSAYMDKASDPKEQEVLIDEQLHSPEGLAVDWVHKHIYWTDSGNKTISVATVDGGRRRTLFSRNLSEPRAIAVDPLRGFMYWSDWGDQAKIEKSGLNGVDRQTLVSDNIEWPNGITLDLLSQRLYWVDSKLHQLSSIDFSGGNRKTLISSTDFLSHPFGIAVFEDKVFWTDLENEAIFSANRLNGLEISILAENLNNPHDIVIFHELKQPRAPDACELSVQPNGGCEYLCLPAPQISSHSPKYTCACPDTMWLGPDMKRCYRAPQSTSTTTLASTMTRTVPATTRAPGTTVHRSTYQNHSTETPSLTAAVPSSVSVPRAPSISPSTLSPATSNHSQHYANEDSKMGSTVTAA
Kd: 30 nM

Source: patent US20190169246A1 (UNIVERSITY OF SOUTH FLORIDA, published 2019)
